From the DeepSol protein solubility set come the findings set out here.

A short description of the data set: soluble on expression in E. coli; label from the status in PepcDB or PDB records.
Turning to “MKTAQEFRAGQVANINGAPWVIQKAEFNKSGRNAAVVKMKLKNLLTGAGTETVFKADDKLEPIILDRKEVTYSYFADPLYVFMDSEFNQYEIEKDDLEGVLTFIEDGMTDICEAVFYNDKVISVELPTTIVRQIAYTEPAVRGDTSGKVMKTARLNNGAELQVSAFCEIGDSIEIDTRTGEYKSRVKA”, the “soluble on expression in E. coli” value is recorded as “not soluble”.
As to “MPKYYCDYCDTFLTHDSPSVRKTHNGGRKHKDNVRMFYQKWMEDQAQKLVDQTARAFATNRMQGAVPRTTMGMAPVPPVGHHPMMGGPPGMPMMAPRPFPGPGVGFPGAPGMPPFPGGPMGMAGPPGMPPMMPRPPQQFRPM”, the “soluble on expression in E. coli” value is recorded as “not soluble”.
Consider “MKRIQEIQQNLERLAEMDEHLEQCEEWNVVAQEIVQKLSTIRKEVERSAAPTPLLLTPPGSCGSGSIYSDISSEMTNVYTEAVEAYDQQIYSRCVRLVEGANRESPVDMCLISLAHHSYAEMVNAASGSDDAMKFAKWWAEFLDSVEAGRGHSEKIELLDYEAVAYEKIVKLGGVADVEKLIEVVVRSYEMVTLLNRPYHILSLQKLFRLTNVLSSSEVDLESDAFSSAKTVVLTGIQNVLRDRKKFAQLGKFNEHNMKIAMRRTAQPDFRVRYCEKR”, for which the “soluble on expression in E. coli” value is listed as “soluble”.
In the case of “MERVKSHFHNRKKVLLARIKDELKTIPSSNQMSTDEKMEELVRRRICIGEYDEQLARVCLDIEDEEKGRTEQFGNEQIQQPMTNLFTETSHQSLLSQLLTSSASQSKSEIPISMSSPMESASSKDSEPQAVISLPTLGATRAPLLSKLLSDPSTSKENGFLLRKEPVRLARAPSAIRNPNVSNYDRKRRAASPYEKSNRLSVLPSPQNQYLSHLIVDVSSPQELKRLLSVLIDHGFSRFQHIGSSDMVASSIRTGIPRAPRLDTVEYSNYEHEPETDEISRDGTPFWSTPIPPTNKELPVSPVSQLDMTNSIKSRVERVDVEVKLEPCNDEDDEFSEEVDEQTAELEEQLATEAIRTGLALFGKVSPSPKRMKSCGSSGSVCGDVVTAICEICGIGIRLNSGGSKWNFFEHVMMKHSTHKPFKCSQCPYQAVRKVRVKQHGQSQHNSEHEPVNMITPEVRKEWLDTMAKCFPNHQYGKEAKI”, the “soluble on expression in E. coli” value is listed as “not soluble”.
For “MVNTNLEELRTQVDQLNIDLLELISKRANLVQEIGKIKGTQGSLRFDPLREREMLNTILAANEGPFEDSTVQKLFKEIFKAGLELQEEDHSKALLVSRKNKKEDTIVTVKGLPIGNGEPVFVFGPCSVESYEQVAAVAESIKAKGLKLIRGGAFKPRTSPYDFQGLGLEGLKILKRVSDEYGLGVISEIVTPADIEVALDYVDVIQIGARNMQNFELLKAAGRVDKPILLKRGLSATIEEFIGAAEYIMSQGNGKIILCERGIRTYEKATRNTLDISAVPILKKETHLPVMVDVTHSTGRKDLLLPCAKAALAIEADGVMAEVHPDPAVALSDSAQQMDIPEFEEFWNAILASNLVPHKIK”, the “soluble on expression in E. coli” value was “not soluble”.
The entry for “MGSDKIHHHHHHMTLINKLKQHLSDSQITQAQLAREAGVNAGALSAYLNDNYKGNIADVEAKLAAYLEKKAVQAREFVEAPAFIETATSRQIFKTLEFAQIANCLATVYGMSGVGKTKAIQEFAKSHANVWLVTASPSRSSLSEILYEIALELGISDAPRRKGTLSRLIARKIKGTEGLLIVDEADHLPYEALEELRIMQEEAGIGLVLVGNDKVYTRMKGGISPSHEYARLWSRVAKNTSIQKTKKADTQAVAQAWGLETDEEALKVMQSITETGGGLRILTQTYACRNGSKRIWQVD” is “not soluble”; for “MGHHHHHHSHMSEPGKGDDCLELESSMAESRLRAPDLGVSRCLGKCQKNSPGARKHPFSGKSFYLDLPAGKNLQFLTGAIQQLGGVIEGFLSKEVSYIVSSRREVKAESSGKSHRGCPSPSPSEVRVETSAMVDPKGSHPRPSRKPVDSVPLSRGKELLQKAIRNQVSWGKMGQSRWSPA” it is “not soluble”; for “MAHHHHHHMKFTISTSIEDVLFKGGFRVKEMRLNDFLTVIFGGRSILRANRSVLLRDFFSDPTRYIHDAGVLNEIQATGAYARMEEAVRDEIIFEEDRSKLRDKGVINLLGWSEAAANVKTTVHNNNKNSLDAALEEARNPTTTSTPIYLEGCYESVYNAKWHHLVEVPGGEGTGMDVEEGEPPQS” it is “not soluble”.
For “MNGEEIIRFERVTKEYDGTVVLDDVSFAMERGKFYTLLGPSGCGKTTILRLIAGFIEPTEGTIYFHGKPIQNVPPNKRQVNTVFQDYALFPHLDVFENVAFGLRVKKMKEADIRQKVSEALRFVNLEGYERRRIQEMSGGQRQRVAIARAIVNEPEVLLLDEPLSALDLKLRTEMQYELRELQRRLGITFIFVTHDQEEALAMSDYIFVLNKGKIQQFGTPKDIYDEPINRFVADFIGESNILSGRMIDDFLVEFAGKQFACVDRGFAPNEPVDVVIRPEDLELAAPEDGQIVIRVDSLLFRGVHYEICGYDENGNEWLVHSTKKAEVGETVGLRFEPEAIHVMRVEREDEGA”, the “soluble on expression in E. coli” value is “soluble”.
Turning to “MSVLNPCMTCGACCAYFRVSFYWAEGDDASGRVPASLTEPVTPFLRCMAGTNQKQPHCKALIGTPGENVSCAIYENRPSTCREFSISGEGGEVNEACNRARARYGLPPLYKDMLFHTTADAATVELSRVQLPANLEHHHHHH”, the “soluble on expression in E. coli” value was “not soluble”.
Consider “MIKDLVRPELQKLVPYVSHQVPYRIKLDANESPFELPESIRKKLADYFLKGPGLNIYPDNESVELRKTIAKYWNVDADEVIVGTGSNQLIQLIITVFVGKGEKVLYPWPTFSMYKINTLIAGGEPVAFPLDKEKDFVLDTDKFIEAVKTENAKVVFLCNPNNPTGGLVPLEHIEKIVKECKSSIIVVDEAYAEFCPQSVIPLVKKYENLVVLRTFSKAYLLAGARCGYSISGIEIANEINKVRPTYNVSSLTQLIAKMVFEEQEEMQKMIRYLIEQRGELEKSLKKIKDVCIYPSHANYILVKVPEAEMISKELQKRGILIRSFPNDPVLYDCIRITVGTKEQNDIFLEEFSDIINNF”, for which the “soluble on expression in E. coli” value was “not soluble”.
The entry for “MSLTGGISAFGRMVWEGIQIAHEEKPTVLGEEVELVLLDTRSEKTEAANAAARAIDKEKVLAIIGEVASAHSLAIAPIAEENKVPMVTPASTNPLVTQGRKFVSRVCFIDPFQGAAMAVFAYKNLGAKRVVVFTDVEQDYSVGLSNFFINKFTELGGQVKRVFFRSGDQDFSAQLSVAMSFNPDAIYITGYYPEIALISRQARQLGFTGYILAGDGADAPELIEIGGEAVEGLLFTTHYHPKAASNPVAKKFVEVYKEKYGKEPAALNALGYDAYMVLLDAIERAGSFDREKIAEEIRKTRNFNGASGIINIDENGDEGHHHHHH” is “not soluble”.
Turning to “MPVSPEREQALSEFVAAVQAREDVQSELNEITTLDQLKTIVDSIEPALTGAALIPFEQATSPPKITVDSGVLDKNIPWRLLRCPGGPLVLQMICTRVNFALWIESC”, the “soluble on expression in E. coli” value is on record as “not soluble”.
As for “SIRTSFIKLPGSDGSRYCDSWRLAAETNNVGTWDLIPSICVDSVAEYLNGDQFLSDYSVIVDYALAFAKSVEISGDGKDVWIFDIDETLLTNIDYYKAHGYGSEPYDDNKFSEWVEQGTAPAFDASLRLYNALKKLGFTIILLTGRDEHQRTSTETNLRDAGYSGWERLLLRGPNDQGKSATNYKSEQRSKLIEEGFKIRGNSGDQWSDLQGFAVADRSFKVPNPMYYIP”, the “soluble on expression in E. coli” value is given as “soluble”.
For the sequence “MYLKARQDELTESTIQSQEYRLEAFEQFCREEGIENLNDLSGRDLYAYRVWRREGNGKGRDEIEPITLRGQLATVRSFLRFAAEVDAVPEDLRTKVPLPTILEHHHHHH”, the “soluble on expression in E. coli” value is recorded as “not soluble”.
For the sequence “MSLTEKVSVFALGGAGEIGKNMYVVELDEDIFVIDAGLMFPGDEMLGIDKVIPDISYLKENKERIQGIFITHGHEDHIGALSYVLRDLKVPVYGTRLTLGLIEIKLKEAGLLKKADLRPIDAKTKLTVAGHFITFFRVNHSIPDAVGVCIQTSQGAIVHTGDFKFDYTPVDGKQADFGKIAAIGQRGVLCLLSDSTNAERPGMSGSESTVGSELNDVIYEAPGRVIVASFASNVHRLQQVFAAAEANNEGHHHHHH”, the “soluble on expression in E. coli” value was “soluble”.
As for “MHNSSSSTIGKPLIPQKLPEFLNAYENFIIAGHKEPDGDCIGSCLAMSFFLKRKNKNCILMSAGPFKRTEIKEYEHLFTDKLKISDKINPKTTGLIILDCSNFDRVGEIAELISGFNYIIIDHHATNTEKSDTSLIMPEAPSTTYLIQSIIEEIGEKLTKEEADALFFGLCTDTGFFRHLDAGSAEVFAHASRLIEAGANPKQTFMKINGGKKFESRLLISRILNRMKTYYDGRLVVSYETYDDLLEFGLESRDSDILYQLIQSIEGVEAICIVRQDSPSHCSVGFRSLDKIDVSKIAASFGGGGHKQASGLYIEGKFDDLIPRFVEAFGTQMLEHHHHHH”, the entry is “soluble”; as for “GKKAVINDSNTPLHLLQPAYQGTYGDLTPEQVKKDIDRVFAYIDKETPARVVDKNTGKVITDYTAMGDEAQLERGAFRLASYEWGVTYSALIAAAETTGDKRYTDYVQNRFRFLAEVAPHFKRVYEEKGKTDSQLLQILTPHALDDAGAVCTAMIKLRLKDESLPVDGLIQNYFDFIINKEYRLADGTFARNRPQRNTLWLDDMFMGIPAVAQMSRYDKEAKNKYLAEAVKQFLQFADRMFIPEKGLYRHGWVESSTDHPAFCWARANGWALLTACELLDVLPEDYPQRPKVMDYFRAHVRGVTALQSGEGFWHQLLDCNDSYLETSATAIYVYCLAHAINKGWIDAIAYGPVAQLGWHAVAGKINEEGQVEGTCVGTGMAFDPAFYYYRPVNVYAAHGYGPVLWAGAEMIRLLNTQHPQMNDSAVQYYQEKQKTTAPIFAVDSE”, “soluble”.
As for “MDKEVTNIVLKRHDSIVKGAQDDREYRGLELTNGIRVLLVSDPTTDKSAAALDVKVGHLMDPWELPGLAHFCEHMLFLGTAKYPTENEYSKFLTDNAGHRNAVTASDHTNYHFDVKPDQLRGALDRFVQFFLSPQFTESATEREVCAVDSEHSNNLNNDLWRLSQVDRSLSKPGHDYAKFGTGNKKTLLEEARKKGVEPRDALLQFYKKWYSSNIMTCCIIGKESLDVLQSHLKTLEFDTIENKKVERKVWNENPYGPEQLGKRIDRKFFAHLIRHKGPGSLLVELKRLGWVNSLKSDSNTIAAGFGILNVTMDLSTGGLENVDEIIQLMLNYIGMLKSFGPQQWIHDELADLSDVKFRFKDKEQPMKMAINIAASLQYIPIEHILSSRYLLTKYEPERIKELLSTLTPSNMLVRVVSQKFKEQEGNTNEPVYGTEMKVTDISPEKMKKYENALKTSHHALHLPEKNEYIATNFGQKPRESVKNEHPKLISDDGWSRVWFKQDDEYNMPKQETKFALTTPIVSQNPRISLISSLWLWCFCDILSEETYNAALAGLGCQFELSPFGVQKQSTDGREAERHASLTLHVYGYDEKQPLFVKHLTSCMINFKIDRTRFEVLFESLKRTLTNHAFSQPYLLTQHYNQLLIVDKVWSKEQLLAVCDSVTLENVQGFAREMLQAFHMELFVHGNSTEKEAIQLSKELMDILKSAAPNSRPLYRNEHNPRREFQLNNGDEYIYRHLQKTHDAGCVEVTYQIGVQNKYDNAVVGLIDQLIKEPVFDTLRTNEALGYIVWTGCRFNCGAVALNIFVQGPKSVDYVLERIEVFLESVRKEIIEMPQDEFEKKVAGMIARLEEKPKTLSNRFKRFWYQIECRQYDFARREKEVKVLKSIGKDDVIALFDKKIRKNAVERRKLVVLVHGKIDDQETLNRIIKKNVESGKKEKEILNLDQLRQSLPVYDLPNAAIDLKPIGVDPLEQKESATVQ”, the entry is “not soluble”; as for “MRGSHHHHHHGMASMRILLSNDDGVHAPGIQTLAKALREFADVQVVAPDRNRSGASNSLTLESSLRTFTFDNGDIAVQMGTPTDCVYLGVNALMRPRPDIVVSGINAGPNLGDDVIYSGTVAAAMEGRHLGFPALAVSLNGYQHYDTAAAVTCALLRGLSREPLRTGRILNVNVPDLPLAQVKGIRVTRCGSRHPADKVIPQEDPRGNTLYWIGPPGDKYDAGPDTDFAAVDEGYVSVTPLHVDLTAHSAHDVVSDWLDSVGVGTQW”, “soluble”.
